Laboratory results: the Human Domainome abundance scans (Beltran et al. 2025)

B1: DNA topoisomerase 3-alpha, residues 812 to 851; numbered along this chain, Q13472 (parent)
chain: TCNCGQEAVLLTVRKEGPNRGRQFFKCNGGSCNFFLWADS
B2: Zinc finger homeobox protein 3, residues 2147 to 2202; numbered along this chain, Q15911 (parent)
chain: RPRTRITDDQLRVLRQYFDINNSPSEEQIKEMADKSGLPQKVIKHWFRNTLFKERQ

Variants of: B1
Test: abundance fitness (aPCA) (normalised: wild type 0, dead -1); higher = more abundant; growth selection in yeast, the domain comes from the species named
Conditions: Homo sapiens

Abundance fitness of substitutions, site by site:
S31: L -0.176 | A -0.072 | K 0.112 | R 0.065 | I -0.209 | M -0.13 | H 0.092 | W -0.273 | Q 0.055
C32: V -0.977 | T -0.854 | G -1.07 | S -0.33 | P -1.36 | R -0.934
N3: D -0.006 | R -0.539 | G -0.739 | L -0.32
F25: V -0.509 | K -0.413 | R -0.412 | W -0.123 | M -0.149
W37: A -0.477 | K -0.29 | P -0.239 | L -0.52 | T -0.483 | V -0.19
L10: K -0.065 | E -0.168 | S -0.33 | A -0.284 | V -0.357 | G -0.474 | R -0.126 | T -0.068
P18: H -0.353 | R -0.252 | A -0.058 | V -0.149 | W -0.716 | M -0.336 | L -0.352 | C -0.482
F34: Q -0.44 | L -0.703 | K -0.576 | H -0.396 | R -0.374 | E -0.626
L36: G -0.177 | W -0.134 | A 0.028 | E -0.013 | V -0.255 | H -0.22 | S 0.134 | K 0.189 | Y -0.265 | M 0.022 | F 0.063 | R 0.013
R14: N -0.166 | Q 0.001 | S -0.094 | M 0.06 | A -0.006 | C -0.15 | V -0.037 | Y -0.052 | K 0.089 | T -0.052 | G -0.092 | L -0.099 | P -0.312 | E 0.001
A8: D -0.903 | P 0.309 | E -0.644 | W -0.367 | S -0.369 | M -0.172 | R -0.543 | L -0.238 | F -1
K15: W -0.126 | Y -0.299 | T 0.067 | N 0.031 | G 0.318 | C -0.342 | E 0.105 | A -0.282 | M -0.066 | D 0.06
L11: V 0.031 | S 0.008 | A 0.012 | C -0.208 | Q 0.054 | T 0.027 | W -0.072 | G 0.041 | R 0.049
G29: D 0 | P -0.571 | R -0.093 | V -0.074 | A 0.121 | T -0.371

Variants of: B2
Test: as above
Conditions: Homo sapiens

Abundance fitness of substitutions, site by site:
R55: G -0.054 | T -0.206 | F -0.146 | D 0.114 | H 0.013 | A -0.139 | M -0.101 | N -0.356 | C -0.313 | W -0.396 | Q -0.054 | I -0.096 | P -0.343 | Y -0.195 | L -0.179 | E -0.173 | K -0.175
E54: H 0.085 | S -0.128 | V -0.159 | C -0.149 | G -0.291 | I 0.235 | M -0.107 | Y -0.277 | P -0.367 | R -0.101 | K -0.344 | T -0.048 | D 0.046 | Q 0.04 | L -0.127
Q56: P -0.261 | A 0.09 | S -0.57 | T -0.298 | H -0.5 | D -0.844 | G -0.419 | R 0.166
K53: N -0.041 | V -0.167 | Y 0.141 | S -0.056 | F -0.195 | L -0.163 | Q 0.055 | M 0.09 | W -0.299 | I -0.124 | H -0.07 | T 0.017 | R -0.033 | E -0.006 | P -0.192
